Assay results taken from patent US10117953B2, “Antibody drug conjugates” (Novartis AG, priority 2013, dated 2018).

What was measured:
primary human mast cells [1] = assay: Mast cell apoptosis (Caspase-Glo 3/7); assay type: cell-based; details: 0.05-100 nM, 1.6 nM rhSCF, 48 h
Procedure: Primary human mast cells were cultured from peripheral human blood according to the methods described by Saito et al., Nature Protocols 2006; 1(4):2178-2183. […] Following 30 min incubation at RT, luminescence was recorded on the BioTek Synergy plate reader (BioTek, Winooski, Vt.).

[2] = system: Mo7e cells (SCF-dependent); assay: Mo7e proliferation assay in presence of SCF; assay type: cell-based, human; details: 10 ng/ml SCF, 5 days
Procedure: (§1) To evaluate the potential antagonistic properties of the naked antibodies and the ability of the antibody drug conjugates (ADCs) to inhibit the proliferation of a cKIT-expressing cell line, MO7e (DSMZ, Catalog # ACC-104, Braunschweig, Del.) were grown in the presence or absence of cKIT ligand, Stem Cell Factor (SCF), for survival. MO7e cells were grown in either 10 ng/ml human granulocyte-macrophage colony-stimulating factor GM-CSF (R&D Systems Cat#215-GM, Minneapolis, Minn.) or 10 ng/ml human Stem Cell Factor SCF (R&D Systems Cat#255-SC) prior to seeding in 96 well plates (Costar Cat #3904, Corning, Tewksbury, Mass.) at 5000 cells/well in 100 μl dilution medium. A duplicate plate was generated for a day 0 measurement and all plates were incubated in a tissue culture incubator at 37° C. with 5% CO2 overnight. […] Assay plates were shaken gently for 20 min and the resulting luminescence intensity was measured using a Perkin Elmer 1450 Microbeta TriLux® plate reader (Perkin Elmer, Waltham, Mass.). […] Following this incubation period, relative cell viability was determined via the addition of Cell titer Glo reagent as described above. The effect of the ADCs on cell proliferation was calculated using the average of the duplicates as follows: (% Inhibition=(ADC or Ab treated)/(untreated)*100) The % inhibition data was fitted to a 4-parameter logistic equation and IC50 values were determined.

Mo7e cells = assay: Mo7e proliferation assay with GM-CSF (SCF-independent); assay type: cell-based, human; details: 10 ng/ml GM-CSF, 5 days
Procedure: as §1

primary human mast cells [3] = assay: Mast cell degranulation (β-hexosaminidase release); assay type: cell-based; details: 0.05-100 nM, 90 min
Procedure: Primary human mast cells were cultured from peripheral human blood according to the methods described by Saito et al., (supra). […] Cells were then centrifuged and the supernatants were transferred into 96-well black-walled plates prior to the addition of the β-hexosaminidase substrate. Following 90 min incubation at 37° C., the reaction was stopped by the addition of tris-base (Sigma, Cat # T1503-500G, pH 12, St. Louis, Mo.) and the fluorescence intensity was recorded on the Envision® plate reader.

human cKIT ECD = target: T1, human cKIT ECD (Homo sapiens, UniProt P10721); assay: SPR (Biacore 2000) affinity measurement; assay type: binding; details: Table 5
T1 construct: Human cKIT tr. variant 2 , residues 26-520-TAG; His6 (C); made in house; host or cells: HEK293 derived cell lines (293FS), transient transfection
Procedure: Affinity of the antibodies to cKIT species orthologues and also to cKIT was determined using SPR technology using a Biacore® 2000 instrument (GE Healthcare, Pittsburgh, Pa.) and with CM5 sensor chips.
Briefly, HBS-P (0.01 M HEPES, pH 7.4, 0.15 M NaCl, 0.005% Surfactant P20) supplemented with 2% Odyssey® blocking buffer (Li-Cor Biosciences, Lincoln, Nebr.) was used as the running buffer for all the experiments. The immobilization level and analyte interactions were measured by response unit (RU). Pilot experiments were performed to test and confirm the feasibility of the immobilization of the anti-human Fc antibody (Catalog number BR100839, GE Healthcare, Pittsburgh, Pa.) and the capture of the test antibodies.
For kinetic measurements, the experiments were performed in which the antibodies were captured to the sensor chip surface via the immobilized anti-human Fc antibody and the ability of the cKIT proteins to bind in free solution was determined. Briefly, 25 μg/ml of anti-human Fc antibody at pH 5 was immobilized on a CM5 sensor chip through amine coupling at flow rate of 5 μl/minute on all two flow cells to reach 10,500 RUs. 0.1-1 μg/ml of test antibodies were then injected at 10 μl/min for 1 minute. Captured levels of the antibodies were generally kept below 200 RUs. […]

T1 sequence (P10721 26-520 isoform P10721-2): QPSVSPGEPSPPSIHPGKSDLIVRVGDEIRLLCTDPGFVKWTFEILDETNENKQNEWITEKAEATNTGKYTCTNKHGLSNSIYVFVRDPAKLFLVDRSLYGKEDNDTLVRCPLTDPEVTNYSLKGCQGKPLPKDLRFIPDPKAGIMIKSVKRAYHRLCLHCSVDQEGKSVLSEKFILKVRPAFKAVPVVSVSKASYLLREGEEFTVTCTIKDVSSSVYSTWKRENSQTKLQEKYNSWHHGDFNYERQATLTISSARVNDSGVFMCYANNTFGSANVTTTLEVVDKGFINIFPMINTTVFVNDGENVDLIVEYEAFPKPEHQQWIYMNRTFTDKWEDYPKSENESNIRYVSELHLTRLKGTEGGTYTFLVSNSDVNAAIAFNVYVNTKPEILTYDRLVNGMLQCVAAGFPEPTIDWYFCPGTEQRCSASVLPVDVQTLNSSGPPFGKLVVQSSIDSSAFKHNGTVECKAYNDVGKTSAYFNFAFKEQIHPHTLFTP

B1: NEG085: anti-cKIT antibody of Table 1; VH SEQ ID NO 82, VL SEQ ID NO 91; derived from 9P3 (antibody, V domains shown)
VH: EVQLVESGGGLVQPGGSLRLSCAASGFAFSGYYMAWVRQAPGKGLEWVANINYPGSSTYYLDSVKGRFTISRDNAKNSLYLQMNSLRAEDTAVYYCARGDYYGTTYWYFDVWGQGTTVTVSS
VL: DIQMTQSPSSLSASVGDRVTITCRASQSISSYLNWYQQKPGKAPKLLIYYTSRLQSGVPSRFSGSGSGTDFTLTISSLQPEDFATYYCQQGRRLWSFGGGTKVEIK
Primary human mast cells [1]
  mast cell apoptosis: do not lead to apoptosis of human primary mast cells ex vivo
[2]
  inhibition of cell proliferation: do not have this effect
Mo7e cells
  effect on cell proliferation: no detrimental effect on cell proliferation
Primary human mast cells [3]
  mast cell degranulation: do not induce mast cell degranulation of human primary mast cells ex vivo
Human cKIT ECD
  reaction with human cKIT: nanomolar level
